Experiments:
Assay in all cases: cell-based or functional assay
[1] = molecular target: HIV-1 91US005 (R5) env (gp120 and gp41) (HIV-1 strain 91US005)
[2] = molecular target: HIV-1 Ba-L (R5) env (gp120 and gp41) (HIV-1 strain Ba-L)
[3] = molecular target: HIV-1 NL4-3 (CXCR4-tropic) env (gp120 and gp41) (HIV-1 strain NL4-3)
[4] = molecular target: HIV-1 IIIB (X4) env (gp120 and gp41) (HIV-1 strain IIIB)
[5] = molecular target: HIV-1 JRFL (R5) env (gp120 and gp41) (HIV-1 strain JRFL)
[6] = molecular target: HIV-1 ADA (R5) env (gp120 and gp41) (HIV-1 strain ADA)
[7] = molecular target: HIV-1 HXB2 env (X4) (gp120 and gp41) (HIV-1 strain HXB2) (UniProt P04578)
[8] = molecular target: HIV-1 92HT599 (CXCR4-tropic) env (gp120 and gp41) (HIV-1 strain 92HT599)

Sequence of Griffithsin (P84801 whole entry X31A): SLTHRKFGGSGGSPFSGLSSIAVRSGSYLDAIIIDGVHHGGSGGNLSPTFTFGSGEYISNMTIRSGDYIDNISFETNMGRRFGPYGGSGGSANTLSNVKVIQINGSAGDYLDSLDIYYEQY

Substance: Griffithsin (from UniProt P84801 1-121)
- Inhibition of HIV virus, 91US005 (R5) in PBMC, IC50 [1]: 0.16 nM
- Inhibition of HIV virus, 91US005 (R5) in PBMC, IC90 [1]: 0.51 nM
- Inhibition of HIV-1 Replication in PBMCs, 91US005 (CCR5-tropic), IC50 [1]: 0.28 nM
- Inhibition of HIV-1 Replication in PBMCs, 91US005 (CCR5-tropic), IC90 [1]: 0.76 nM
- Inhibition of HIV virus, Ba-L (R5) in MAGI cells, IC50 [2]: 0.04 nM
- Inhibition of HIV virus, Ba-L (R5) in MAGI cells, IC90 [2]: 0.515 nM
- Inhibition of HIV virus, Ba-L (R5) in PBMC, IC50 [2]: 0.28 nM
- Inhibition of HIV virus, Ba-L (R5) in PBMC, IC90 [2]: 0.76 nM
- Inhibition of HIV-1 Replication in PBMCs, NL4-3 (CXCR4-tropic), IC50 [3]: 0.17 nM
- Inhibition of HIV-1 Replication in PBMCs, NL4-3 (CXCR4-tropic), IC90 [3]: 0.725 nM
- Inhibition of HIV virus, IIIB (X4) in MAGI cells, IC50 [4]: 0.145 nM
- Inhibition of HIV virus, IIIB (X4) in MAGI cells, IC90 [4]: 0.89 nM
- Inhibition of HIV single round pseudovirus in TZM-bl cells, JRFL (R5), IC50 [5]: 0.035 nM
- Inhibition of HIV single round pseudovirus in TZM-bl cells, JRFL (R5), IC90 [5]: 1.25 nM
- Inhibition of HIV single round pseudovirus in TZM-bl cells, ADA (R5), IC50 [6]: 0.008 nM
- Inhibition of HIV single round pseudovirus in TZM-bl cells, ADA (R5), IC90 [6]: 0.164 nM
- Inhibition of HIV virus, ADA (R5) in MAGI cells, IC50 [6]: 0.03 nM
- Inhibition of HIV virus, ADA (R5) in MAGI cells, IC90 [6]: 0.45 nM
- R5 fusion assay IC50 [6]: 1.3 nM
- R5 fusion with competition IC50 [6]: 1.73 nM
- R5 fusion with wash-out on ADA cells IC50 [6]: 4.28 nM
- R5 fusion with wash-out on P5L cells IC50 [6]: 7.34 nM
- X4 fusion assay IC50 [7]: 0.468 nM
- Inhibition of HIV-1 Replication in PBMCs, 92HT599 (CXCR4-tropic), IC50 [8]: 0.74 nM
- Inhibition of HIV-1 Replication in PBMCs, 92HT599 (CXCR4-tropic), IC90 [8]: 1.86 nM

Reference: patent US20110263485A1, “Bifunctional Griffithsin Analogs” (priority 2009, published 2011)
